The supplement of paper PMC10567573

B1: SFRS1 (parent)
chain: RDIDLKNRRGGPPFAFVEFEDPRD
B2: SMOC2 (parent)
chain: QKPLCASDGRTFLSRCEFQRAKCK

Variants of: B1
Test: protein stability index of a GFP-peptide fusion (GPS, HEK-293T) (PSI 1-6); higher = more stable
Conditions: c terminus: a fixed tail appended
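Also: lentivirally expressed fusions sorted by FACS into six bins by GFP to DsRed ratio, PSI derived from sequencing read proportions per bin multiplied by bin number.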

Variant | protein stability index
R23K | 4.14
R23G | 3.84
R23P | 4.53
R23C | 3.67
R23Y | 3.19
R23H | 4.17
R23A | 3.88
R23L | 3.72
R23F | 3.37
R23W | 3.62
R23E | 4.1
R23M | 3.79
R23D | 4.18
R23I | 3.67
R23S | 4.07
R23Q | 4.15
R23N | 4.24
R23T | 4.33
R23V | 3.45
D24H | 3.59

Variant | protein stability index
D24Y | 2.5
D24N | 2.9
D24V | 3.11
D24I | 2.72
D24A | 3.74
D24F | 2.15
D24C | 2.46
D24W | 1.33
D24T | 3.13
D24R | 3.19
D24G | 3.47
D24E | 4.76
D24K | 3.65
D24P | 3.42
D24Q | 3.39
D24M | 2.64
D24L | 2.31
D24S | 3.02
P22V | 3.76
P22H | 3.63

Variant | protein stability index
P22Q | 4.44
P22W | 3.55
P22E | 4.43
P22N | 4.15
P22D | 4.5
P22M | 3.76
P22Y | 3.58
P22S | 3.93
P22I | 3.94
P22C | 3.8
P22G | 4.03
P22K | 4.09
P22A | 3.93
P22R | 3.62
P22L | 3.19
P22T | 3.99
P22F | 2.9
D21W | 2.95
D21Y | 3.18
D21V | 3.02

Variants of: B2
Test: as above
Conditions: c terminus: a fixed tail appended

Variant | protein stability index
R10I | 2.53
R10Y | 2.91
R10V | 4.03
R10P | 3.11
R10M | 2.72
R10S | 3.84
R10K | 2.96
R10D | 3.76
R10E | 3.27
R10F | 2.95
R10L | 3.04
R10W | 2.58
R10Q | 3.33
R10G | 3.17
R10N | 1.99
R10C | 2.89
R10H | 2.71
R10T | 3.54
R10A | 3.24
P3H | 2.17
P3L | 2.67
P3T | 2.81
P3C | 2.39
P3W | 1.53
P3I | 2.16

Variant | protein stability index
P3E | 4.05
P3Q | 2.28
P3R | 3.19
P3K | 2.42
P3F | 1.89
P3N | 2.2
P3A | 2.36
P3V | 2.31
P3M | 3.12
P3Y | 2.83
P3G | 2.5
L4I | 2.31
L4F | 2.18
L4E | 3.77
L4T | 2.65
L4S | 3.35
L4P | 2.79
L4W | 2.51
L4Y | 1.99
L4V | 2.52
L4N | 3.08
L4K | 2.52
L4R | 3.25
L4Q | 2.81
L4D | 3.83

Variant | protein stability index
L4M | 2.29
L4H | 2.59
Q1Y | 2.97
Q1D | 2.68
Q1C | 1.87
Q1S | 2.68
Q1I | 2.19
Q1H | 2.48
Q1L | 2.17
Q1N | 3.36
Q1F | 3.05
Q1G | 3.23
Q1A | 2.81
Q1M | 2.78
Q1R | 2.76
Q1T | 3.41
Q1P | 2.64
Q1E | 3.39
Q1V | 2.58
Q1K | 3.41
C5I | 1.74
C5T | 3.41
C5D | 3.29
C5H | 2.7
C5V | 3.16

Variant | protein stability index
C5N | 4.28
C5S | 2.91
C5R | 2.5
C5Y | 2.38
C5G | 2.44
C5A | 3.31
C5P | 2.94
C5K | 2.19
C5F | 2.01
C5Q | 2.88
C5W | 2.31
F12N | 3.96
F12S | 4.83
F12A | 3.84
F12P | 4
F12Q | 4.5
F12W | 2.34
F12D | 4.57
F12T | 3.63
F12M | 3.16
F12R | 3.73
F12H | 4.22
F12Y | 2.49
F12E | 4.5
F12C | 2.97

Variant | protein stability index
F12V | 3.92
F12I | 3.4
F12G | 3.93
F12L | 2.97
G9S | 3.42
G9L | 2.68
G9Q | 2.64
G9T | 2.67
G9M | 3.19
G9N | 2.82
G9V | 2.93
G9A | 2.58
G9Y | 1.9
G9R | 2.94
G9E | 3.48
G9D | 3.99
G9W | 2.82
G9C | 2.35
G9F | 2.2
G9I | 1.9
G9H | 2.75
G9K | 2.14
G9P | 2.45
S7P | 3.45
S7D | 3.36

Variant | protein stability index
S7M | 1.67
S7H | 2.57
S7L | 2.82
S7T | 2.5
S7C | 1.82
S7Y | 2.15
S7R | 2.38
S7E | 2.86
S7Q | 2
S7N | 3.76
S7V | 2.59
S7A | 2.33
S7F | 2.8
S7W | 2.85
S7I | 2.31
S7K | 3.32
D8A | 2.37
D8L | 1.97
D8N | 2.77
D8V | 2.76
D8Y | 2.67
D8T | 2.9
D8C | 1.63
D8Q | 1.93
D8E | 3.66

Variant | protein stability index
D8K | 2.56
D8M | 2.63
D8I | 2.35
D8R | 3.23
D8F | 1.94
D8P | 2.75
D8H | 2.52
S14C | 2.82
S14F | 2.64
S14P | 4.08
S14G | 3.44
S14L | 3.76
S14H | 3.73
S14N | 3.47
S14Q | 3.25
S14W | 2.21
S14V | 3.22
S14K | 2.93
S14M | 3.66
S14I | 2.48
S14Y | 2.71
S14A | 3.42
S14E | 3.08
S14D | 3.21
S14T | 3.4

Variant | protein stability index
C16D | 4.62
C16L | 2.55
C16H | 4.04
C16M | 3.43
C16F | 3.86
C16K | 3.9
C16A | 3.39
C16G | 4.3
C16I | 1.79
C16E | 4.62
L13S | 2.44
L13Y | 2.52
L13W | 3.46
L13T | 3.93
L13I | 2.82
L13G | 3.31
L13R | 3.15
L13N | 3.78
L13H | 3.31
L13C | 3.51
L13K | 3.3
L13E | 3.72
L13Q | 3.4
L13A | 1.9
L13V | 2.29

Variant | protein stability index
L13P | 3.56
L13D | 4.78
T11D | 3.33
T11Y | 2.03
T11G | 2.6
T11M | 2.89
T11R | 2.52
T11V | 2.33
T11Q | 3.74
T11E | 3.89
T11C | 2.05
T11F | 2.09
T11L | 2.68
T11H | 2.38
T11P | 3.37
T11W | 2.81
T11K | 4.04
T11N | 3.06
T11I | 2.71
T11S | 3.14
T11A | 3.12
A6D | 2.9
A6V | 3.69
A6L | 2.47
A6F | 1.89

Variant | protein stability index
A6R | 2.74
A6P | 3.32
A6N | 2.63
A6H | 3.61
A6S | 3.44
A6M | 2.48
A6C | 2.57
A6W | 2.69
A6G | 2.38
A6T | 2.42
A6Q | 3.21
A6K | 2.82
A6Y | 2.71
A6I | 2.74
K2W | 2.48
K2Y | 2.48
K2A | 2.61
K2M | 3.87
K2F | 2.75
K2T | 3.18
K2R | 3.47
K2L | 2.99
K2I | 3.51
K2P | 3.18
K2S | 2.93

Variant | protein stability index
K2C | 2.03
K2E | 3.78
K2D | 3.62
K2G | 3.16
K2V | 2.97
R15N | 3.09
R15A | 3.65
R15L | 3.65
R15D | 4.47
R15Q | 3.45
R15E | 4.14
R15V | 3.71
R15W | 3.32
R15M | 2.92
R15C | 3.06
R15K | 4.2
R15S | 3.41
R15P | 4.64
R15H | 3.79
R15Y | 3.09
R15F | 3.18
R15T | 4.28
R15G | 3.93
R15I | 3.77
